How the values were obtained:
[1] = target: human CD16A-158V ECD fused to Avi-tagged and biotinylated monomeric Fc (silenced) (human); test: SPR
[2] = target: human CD16A-158F ECD fused to Avi-tagged and biotinylated monomeric Fc (silenced) (human) (UniProt P08637); test: SPR
Chain of UniProt P08637 (P08637 17-208): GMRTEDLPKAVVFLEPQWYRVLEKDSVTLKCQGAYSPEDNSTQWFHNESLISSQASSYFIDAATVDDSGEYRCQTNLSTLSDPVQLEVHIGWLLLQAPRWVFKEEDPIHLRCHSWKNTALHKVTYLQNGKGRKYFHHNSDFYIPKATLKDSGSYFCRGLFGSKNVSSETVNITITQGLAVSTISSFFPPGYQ

Kd [1] | koff [1] | kon [1] | Kd [2] | koff [2] | kon [2] | Substance
13.5 nM | 0.00639 s⁻¹ | 474000 M⁻¹ s⁻¹ |  |  |  | human IgG1 with enhanced Fc (S239D/I332E) (antibody)
 |  |  | 34.7 µM | 0.71 s⁻¹ | 20400 M⁻¹ s⁻¹ | human IgG1 with silenced Fc (L234F/L235E/D265A) (antibody)
424 nM | 0.00995 s⁻¹ | 23500 M⁻¹ s⁻¹ | 2.72 µM | 0.0675 s⁻¹ | 24800 M⁻¹ s⁻¹ | human IgG1 with wildtype Fc (antibody)

— PMC6601565
